Source: the supplement of paper PMC10065799, “High-throughput profiling of sequence recognition by tyrosine kinases and SH2 domains using bacterial peptide display” (eLife, 2023)

Assays:
[1] = test system: AncSZ; assay: phosphorylation enrichment, bacterial display (enrichment ratio); higher = better substrate or ligand; peptides without Tyr show the background
[2] = target: EPHB1 (UniProt P54762); assay: as above
[3] = target: EPHB2 (UniProt P29323); assay: as above
[4] = target: FGFR1 (UniProt P11362); assay: as above
[5] = target: FGFR3 (UniProt P22607); assay: as above
[6] = test system: Fer (mouse); assay: as above
[7] = target: Fes (UniProt P07332); assay: as above
[8] = target: Fyn (UniProt P06241); assay: as above
[9] = target: Hck (UniProt P08631); assay: as above
[10] = target: Jak2 (UniProt O60674); assay: as above
[11] = target: MERTK (UniProt Q12866); assay: as above
[12] = test system: c-Abl (mouse); assay: as above
[13] = test system: c-Src; assay: as above
[14] = target: Grb2 SH2 (UniProt P62993); assay: SH2 binding enrichment of the phosphorylated peptide, bacterial display (enrichment ratio); higher = better substrate or ligand; peptides without Tyr show the background
[15] = target: SHP2-C SH2; assay: as above
[16] = target: c-Src SH2; assay: as above
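Throughout, for SH2 binding enrichment of the phosphorylated peptide, bacterial display: peptide library displayed on the E. coli surface as eCPX fusions, selected cells deep-sequenced, score is each peptide's frequency after selection divided by its frequency in the input.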
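Throughout, for phosphorylation enrichment, bacterial display: 11-residue human phosphosite peptides and single-mutation variants displayed on the E. coli surface, counted by deep sequencing, each peptide's frequency after selection divided by its frequency in the unselected input library; frequency after pTyr selection over input frequency; kinase dosed for 20-30% of maximal phosphorylation in three min.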

Chain of MERTK (Q12866 whole entry, looked up): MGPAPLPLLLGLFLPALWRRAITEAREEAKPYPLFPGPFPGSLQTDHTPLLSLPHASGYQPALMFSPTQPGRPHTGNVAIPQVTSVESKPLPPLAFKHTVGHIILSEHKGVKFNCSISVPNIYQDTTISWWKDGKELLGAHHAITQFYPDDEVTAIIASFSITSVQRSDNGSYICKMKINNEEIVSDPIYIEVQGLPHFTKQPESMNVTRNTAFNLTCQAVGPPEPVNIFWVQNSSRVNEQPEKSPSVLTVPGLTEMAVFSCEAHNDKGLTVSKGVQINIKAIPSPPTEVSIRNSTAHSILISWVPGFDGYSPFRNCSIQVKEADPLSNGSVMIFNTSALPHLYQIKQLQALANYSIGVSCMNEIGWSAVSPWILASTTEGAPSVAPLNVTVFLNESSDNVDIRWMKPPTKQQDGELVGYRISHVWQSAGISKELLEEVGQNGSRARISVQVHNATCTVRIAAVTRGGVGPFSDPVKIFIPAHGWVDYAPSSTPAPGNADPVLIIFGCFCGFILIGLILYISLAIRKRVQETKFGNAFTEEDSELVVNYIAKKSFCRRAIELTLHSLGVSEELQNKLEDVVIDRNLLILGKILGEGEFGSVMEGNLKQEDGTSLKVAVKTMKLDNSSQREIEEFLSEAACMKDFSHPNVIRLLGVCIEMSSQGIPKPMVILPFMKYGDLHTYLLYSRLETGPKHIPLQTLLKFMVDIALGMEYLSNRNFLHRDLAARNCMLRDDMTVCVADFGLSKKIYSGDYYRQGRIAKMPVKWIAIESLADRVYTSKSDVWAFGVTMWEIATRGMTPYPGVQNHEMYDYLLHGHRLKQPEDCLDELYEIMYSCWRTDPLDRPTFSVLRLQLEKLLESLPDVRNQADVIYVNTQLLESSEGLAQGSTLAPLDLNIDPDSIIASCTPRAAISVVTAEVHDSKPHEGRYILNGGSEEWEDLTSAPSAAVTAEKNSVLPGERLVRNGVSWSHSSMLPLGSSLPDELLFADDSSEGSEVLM
Chain of Hck (P08631 whole entry, looked up): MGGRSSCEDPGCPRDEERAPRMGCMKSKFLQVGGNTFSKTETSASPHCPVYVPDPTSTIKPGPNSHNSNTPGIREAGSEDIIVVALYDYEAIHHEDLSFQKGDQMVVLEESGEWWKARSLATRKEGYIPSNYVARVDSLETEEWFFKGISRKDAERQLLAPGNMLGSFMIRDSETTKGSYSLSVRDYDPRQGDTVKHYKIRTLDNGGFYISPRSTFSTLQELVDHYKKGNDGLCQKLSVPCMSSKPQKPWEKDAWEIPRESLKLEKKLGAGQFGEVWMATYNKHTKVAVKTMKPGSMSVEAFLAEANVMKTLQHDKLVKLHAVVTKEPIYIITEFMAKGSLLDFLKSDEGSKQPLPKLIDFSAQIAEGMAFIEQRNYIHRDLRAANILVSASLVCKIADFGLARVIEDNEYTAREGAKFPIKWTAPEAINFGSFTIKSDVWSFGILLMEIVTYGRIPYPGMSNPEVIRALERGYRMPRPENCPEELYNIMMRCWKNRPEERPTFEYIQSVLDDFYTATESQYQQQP
Chain of Grb2 SH2 (P62993 whole entry, looked up): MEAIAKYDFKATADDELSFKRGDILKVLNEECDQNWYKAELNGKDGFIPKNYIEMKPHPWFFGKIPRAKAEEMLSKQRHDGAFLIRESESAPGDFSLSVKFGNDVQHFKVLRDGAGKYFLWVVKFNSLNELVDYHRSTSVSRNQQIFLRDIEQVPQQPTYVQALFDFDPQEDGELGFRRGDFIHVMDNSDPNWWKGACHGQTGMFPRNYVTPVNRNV
Chain of EPHB1 (P54762 whole entry, looked up): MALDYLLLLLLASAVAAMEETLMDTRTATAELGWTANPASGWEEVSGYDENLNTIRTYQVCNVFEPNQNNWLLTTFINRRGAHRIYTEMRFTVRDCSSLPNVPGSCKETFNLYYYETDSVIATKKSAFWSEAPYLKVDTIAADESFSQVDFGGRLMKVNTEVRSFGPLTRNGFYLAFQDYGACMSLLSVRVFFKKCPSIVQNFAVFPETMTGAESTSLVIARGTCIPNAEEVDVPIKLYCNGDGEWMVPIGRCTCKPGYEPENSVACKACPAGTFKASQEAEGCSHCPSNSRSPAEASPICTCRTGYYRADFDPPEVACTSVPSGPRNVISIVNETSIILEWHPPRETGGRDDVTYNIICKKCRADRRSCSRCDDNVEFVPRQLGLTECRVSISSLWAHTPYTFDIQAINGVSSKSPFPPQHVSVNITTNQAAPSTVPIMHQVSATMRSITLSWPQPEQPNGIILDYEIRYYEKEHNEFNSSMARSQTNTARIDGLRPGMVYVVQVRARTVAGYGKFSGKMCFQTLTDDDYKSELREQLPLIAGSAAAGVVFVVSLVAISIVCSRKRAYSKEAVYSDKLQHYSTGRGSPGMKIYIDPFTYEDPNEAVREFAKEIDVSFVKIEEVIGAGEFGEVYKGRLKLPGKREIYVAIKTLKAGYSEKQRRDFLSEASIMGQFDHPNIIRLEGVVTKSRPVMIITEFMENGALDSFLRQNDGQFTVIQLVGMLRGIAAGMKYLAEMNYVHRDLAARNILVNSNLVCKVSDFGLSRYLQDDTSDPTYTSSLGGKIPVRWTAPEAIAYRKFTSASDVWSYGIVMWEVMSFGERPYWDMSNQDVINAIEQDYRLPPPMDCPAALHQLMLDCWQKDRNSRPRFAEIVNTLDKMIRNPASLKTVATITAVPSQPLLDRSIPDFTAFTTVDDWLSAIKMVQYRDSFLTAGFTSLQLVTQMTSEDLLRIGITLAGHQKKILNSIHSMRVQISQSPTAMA
Chain of FGFR1 (P11362 whole entry, looked up): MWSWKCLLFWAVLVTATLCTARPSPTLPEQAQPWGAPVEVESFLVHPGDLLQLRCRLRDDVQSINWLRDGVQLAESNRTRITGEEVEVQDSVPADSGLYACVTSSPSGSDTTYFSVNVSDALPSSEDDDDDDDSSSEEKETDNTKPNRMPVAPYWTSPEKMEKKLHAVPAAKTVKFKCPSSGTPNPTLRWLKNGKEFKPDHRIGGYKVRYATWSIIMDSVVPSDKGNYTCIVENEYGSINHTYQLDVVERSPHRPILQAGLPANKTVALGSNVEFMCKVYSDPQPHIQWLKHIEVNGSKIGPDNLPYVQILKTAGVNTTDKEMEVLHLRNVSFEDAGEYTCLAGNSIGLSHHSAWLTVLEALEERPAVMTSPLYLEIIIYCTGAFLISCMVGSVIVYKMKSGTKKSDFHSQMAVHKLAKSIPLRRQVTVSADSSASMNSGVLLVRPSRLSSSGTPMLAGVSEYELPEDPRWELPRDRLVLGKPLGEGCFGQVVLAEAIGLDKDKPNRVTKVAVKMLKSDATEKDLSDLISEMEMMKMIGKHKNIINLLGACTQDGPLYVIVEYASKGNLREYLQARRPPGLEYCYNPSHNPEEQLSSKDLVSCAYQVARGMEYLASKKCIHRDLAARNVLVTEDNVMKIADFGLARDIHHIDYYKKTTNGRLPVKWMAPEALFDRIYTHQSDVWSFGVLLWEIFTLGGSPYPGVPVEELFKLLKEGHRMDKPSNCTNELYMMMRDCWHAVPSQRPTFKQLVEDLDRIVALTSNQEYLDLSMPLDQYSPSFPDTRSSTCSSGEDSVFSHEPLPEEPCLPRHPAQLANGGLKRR
Chain of Jak2 (O60674 whole entry, looked up): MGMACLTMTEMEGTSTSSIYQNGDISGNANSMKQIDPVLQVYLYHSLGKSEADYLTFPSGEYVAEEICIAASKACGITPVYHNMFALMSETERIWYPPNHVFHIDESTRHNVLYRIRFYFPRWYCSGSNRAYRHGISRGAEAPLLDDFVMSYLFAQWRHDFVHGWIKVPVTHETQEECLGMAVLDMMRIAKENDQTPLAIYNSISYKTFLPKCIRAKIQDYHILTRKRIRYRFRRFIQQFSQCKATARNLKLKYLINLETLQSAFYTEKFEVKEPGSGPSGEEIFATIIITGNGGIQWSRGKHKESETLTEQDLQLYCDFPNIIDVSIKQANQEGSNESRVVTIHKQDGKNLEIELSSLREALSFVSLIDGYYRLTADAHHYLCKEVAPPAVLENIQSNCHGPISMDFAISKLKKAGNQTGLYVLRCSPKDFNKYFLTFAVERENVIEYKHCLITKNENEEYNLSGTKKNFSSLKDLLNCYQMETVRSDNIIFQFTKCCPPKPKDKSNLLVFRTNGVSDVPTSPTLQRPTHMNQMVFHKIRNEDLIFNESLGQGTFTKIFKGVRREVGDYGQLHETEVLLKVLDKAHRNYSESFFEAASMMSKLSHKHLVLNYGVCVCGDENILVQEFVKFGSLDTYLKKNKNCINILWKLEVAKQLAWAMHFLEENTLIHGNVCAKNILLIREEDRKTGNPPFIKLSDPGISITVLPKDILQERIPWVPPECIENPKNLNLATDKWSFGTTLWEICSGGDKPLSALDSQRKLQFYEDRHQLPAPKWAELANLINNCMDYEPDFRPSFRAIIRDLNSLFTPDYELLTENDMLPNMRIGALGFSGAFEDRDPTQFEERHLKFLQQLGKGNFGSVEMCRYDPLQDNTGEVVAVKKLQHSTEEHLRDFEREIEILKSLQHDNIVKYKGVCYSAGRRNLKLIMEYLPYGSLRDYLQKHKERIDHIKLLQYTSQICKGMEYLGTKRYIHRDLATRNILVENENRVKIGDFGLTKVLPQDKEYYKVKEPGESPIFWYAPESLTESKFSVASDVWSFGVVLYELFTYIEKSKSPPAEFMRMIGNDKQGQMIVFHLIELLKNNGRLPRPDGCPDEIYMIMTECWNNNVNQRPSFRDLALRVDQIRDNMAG

Sequence | phosphorylation enrichment [1] | phosphorylation enrichment [2] | phosphorylation enrichment [3] | phosphorylation enrichment [4] | phosphorylation enrichment [5] | phosphorylation enrichment [6] | phosphorylation enrichment [7] | phosphorylation enrichment [8] | phosphorylation enrichment [9] | phosphorylation enrichment [10] | phosphorylation enrichment [11] | phosphorylation enrichment [12] | phosphorylation enrichment [13] | SH2 binding enrichment [14] | SH2 binding enrichment [15] | SH2 binding enrichment [16]
KTKIGYSPLHQ [ANK1_Y735_L733I] | 0.489 | 0.326 | 0.449 | 0.422 | 0.384 | 0.434 | 0.512 | 0.408 | 0.435 | 0.49 | 0.466 | 0.456 | 0.425 | 0.903 | 0.827 | 0.398
SCRENYSYSEE [LEMD3_Y258_D260Y] | 1.18 | 0.66 | 0.604 | 0.561 | 0.76 | 0.48 | 1.22 | 0.512 | 0.548 | 0.892 | 0.428 | 0.652 | 0.47 | 1.04 | 1.08 | 1.66
PPQFSYGLQTQ [SRA1_Y35] | 0.466 | 0.333 | 0.584 | 0.586 | 0.308 | 0.286 | 0.604 | 0.346 | 0.443 | 0.433 | 0.467 | 0.483 | 0.426 | 0.97 | 0.544 | 0.425
GIVEDYRPRFY [ACVRL1_Y421_P424R] | 0.7 | 0.375 | 0.615 | 0.409 | 0.521 | 0.519 | 0.952 | 0.447 | 0.537 | 0.619 | 0.674 | 0.585 | 0.464 | 0.882 | 0.757 | 0.481
AEARMYGVLPW [PLP1_Y207_D203E] | 0.767 | 0.692 | 1.05 | 0.502 | 0.559 | 0.477 | 0.811 | 7.15 | 7.47 | 0.65 | 1.54 | 0.989 | 4.81 | 0.769 | 0.871 | 0.46
QGIIIYKAAYF [SLC25A4_Y187_R188K] | 1.66 | 0.94 | 1.04 | 0.948 | 1.2 | 1.01 | 2.36 | 0.53 | 0.647 | 2.63 | 1.04 | 1.85 | 1.06 | 0.708 | 0.942 | 0.391
KKFPDYIQIAM [SGMS2_Y59_YF] | 1.13 | 4.26 | 0.672 | 8.61 | 5.17 | 0.427 | 1.06 | 0.468 | 0.496 | 1.07 | 0.461 | 0.7 | 0.556 | 0.93 | 0.946 | 0.76
MNKNAYHNVTT [ST3GAL6_Y306_A311T] | 0.497 | 0.358 | 0.352 | 0.358 | 0.495 | 0.322 | 0.426 | 0.34 | 0.385 | 0.434 | 0.412 | 0.525 | 0.364 | 4.43 | 0.706 | 2.21
TTTQAYRVDER [PRKN_Y391] | 0.709 | 0.473 | 0.439 | 0.446 | 0.512 | 0.479 | 0.758 | 0.482 | 0.446 | 0.57 | 0.404 | 0.714 | 0.389 | 0.921 | 0.597 | 0.465
AQVDTYCRHNF [HLA-DRB1_Y107_A103Q_YF] | 0.676 | 0.369 | 0.479 | 0.668 | 0.472 | 0.628 | 0.959 | 0.433 | 0.446 | 0.673 | 0.528 | 0.59 | 0.434 | 1.06 | 0.834 | 0.621
VLAHKYHGGGG [HBB_Y146_A141V] | 0.376 | 0.354 | 0.362 | 0.349 | 0.352 | 0.366 | 0.498 | 0.366 | 0.405 | 0.434 | 0.352 | 0.405 | 0.363 | 0.939 | 0.852 | 0.464
RNAAEYPLSSG [ABL1_Y139_L140P] | 0.426 | 0.337 | 0.345 | 0.445 | 0.485 | 0.402 | 0.898 | 0.401 | 0.596 | 0.41 | 0.453 | 0.647 | 0.522 | 0.865 | 0.354 | 0.497
SEPSGYQDNIA [DES_Y363_A360P] | 1.02 | 0.546 | 0.595 | 0.488 | 0.708 | 0.525 | 1.05 | 0.724 | 0.505 | 0.953 | 0.426 | 0.753 | 0.47 | 0.743 | 0.92 | 0.476
SSVKLYRVFCD [FGB_Y266_P265L_YF] | 0.945 | 0.579 | 0.668 | 0.487 | 0.749 | 0.469 | 1.12 | 0.468 | 0.514 | 0.935 | 0.41 | 0.648 | 0.47 | 0.665 | 0.633 | 0.395
VRSTEYPCAGL | 0.586 | 0.554 | 0.483 | 0.447 | 0.497 | 0.292 | 0.798 | 0.397 | 0.338 | 0.713 | 0.362 | 0.611 | 0.471 | 1.03 | 1.08 | 0.615
PFGQWYESHFA [RPS8_Y113_R110G_YF] | 1.3 | 5.8 | 4.94 | 1.01 | 1.01 | 17.7 | 1.43 | 1.32 | 1.53 | 0.907 | 4.87 | 0.764 | 4.21 | 1.15 | 1.12 | 0.919
IIWDSYTTNKV [GNB1_Y85] | 1.2 | 0.498 | 0.598 | 0.489 | 0.729 | 0.665 | 1.21 | 0.46 | 0.482 | 0.863 | 0.356 | 0.687 | 0.395 | 0.76 | 0.77 | 0.543
